T1: hiR2-FL-V434E-T7 (human, UniProt Q6PJF5 1-856)
T1 sequence: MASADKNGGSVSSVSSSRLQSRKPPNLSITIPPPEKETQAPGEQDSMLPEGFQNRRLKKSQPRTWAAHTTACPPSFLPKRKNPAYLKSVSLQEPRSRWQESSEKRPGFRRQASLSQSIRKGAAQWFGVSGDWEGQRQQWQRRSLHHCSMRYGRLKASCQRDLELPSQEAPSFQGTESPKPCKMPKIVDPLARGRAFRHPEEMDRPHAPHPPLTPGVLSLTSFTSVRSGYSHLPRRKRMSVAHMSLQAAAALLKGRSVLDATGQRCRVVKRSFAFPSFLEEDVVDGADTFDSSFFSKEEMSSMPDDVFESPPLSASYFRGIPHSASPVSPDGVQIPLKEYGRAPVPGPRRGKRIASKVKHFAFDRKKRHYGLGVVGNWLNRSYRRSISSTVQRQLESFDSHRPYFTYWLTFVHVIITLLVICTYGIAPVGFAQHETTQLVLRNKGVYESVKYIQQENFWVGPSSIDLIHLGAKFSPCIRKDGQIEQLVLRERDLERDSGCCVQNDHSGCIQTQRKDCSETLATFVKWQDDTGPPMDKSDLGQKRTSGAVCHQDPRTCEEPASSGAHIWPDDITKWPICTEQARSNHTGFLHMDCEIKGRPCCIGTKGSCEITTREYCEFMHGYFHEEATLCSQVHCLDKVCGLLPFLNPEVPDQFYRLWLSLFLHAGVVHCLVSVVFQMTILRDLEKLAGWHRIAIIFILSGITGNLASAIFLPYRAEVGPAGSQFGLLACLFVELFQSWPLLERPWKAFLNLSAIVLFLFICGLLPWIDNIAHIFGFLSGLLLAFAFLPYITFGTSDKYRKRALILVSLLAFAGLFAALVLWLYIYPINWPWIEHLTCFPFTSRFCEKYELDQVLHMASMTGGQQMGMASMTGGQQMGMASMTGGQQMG

T2: hiR2-FL-T436V-T7 (human, UniProt Q6PJF5 1-856)
T2 sequence: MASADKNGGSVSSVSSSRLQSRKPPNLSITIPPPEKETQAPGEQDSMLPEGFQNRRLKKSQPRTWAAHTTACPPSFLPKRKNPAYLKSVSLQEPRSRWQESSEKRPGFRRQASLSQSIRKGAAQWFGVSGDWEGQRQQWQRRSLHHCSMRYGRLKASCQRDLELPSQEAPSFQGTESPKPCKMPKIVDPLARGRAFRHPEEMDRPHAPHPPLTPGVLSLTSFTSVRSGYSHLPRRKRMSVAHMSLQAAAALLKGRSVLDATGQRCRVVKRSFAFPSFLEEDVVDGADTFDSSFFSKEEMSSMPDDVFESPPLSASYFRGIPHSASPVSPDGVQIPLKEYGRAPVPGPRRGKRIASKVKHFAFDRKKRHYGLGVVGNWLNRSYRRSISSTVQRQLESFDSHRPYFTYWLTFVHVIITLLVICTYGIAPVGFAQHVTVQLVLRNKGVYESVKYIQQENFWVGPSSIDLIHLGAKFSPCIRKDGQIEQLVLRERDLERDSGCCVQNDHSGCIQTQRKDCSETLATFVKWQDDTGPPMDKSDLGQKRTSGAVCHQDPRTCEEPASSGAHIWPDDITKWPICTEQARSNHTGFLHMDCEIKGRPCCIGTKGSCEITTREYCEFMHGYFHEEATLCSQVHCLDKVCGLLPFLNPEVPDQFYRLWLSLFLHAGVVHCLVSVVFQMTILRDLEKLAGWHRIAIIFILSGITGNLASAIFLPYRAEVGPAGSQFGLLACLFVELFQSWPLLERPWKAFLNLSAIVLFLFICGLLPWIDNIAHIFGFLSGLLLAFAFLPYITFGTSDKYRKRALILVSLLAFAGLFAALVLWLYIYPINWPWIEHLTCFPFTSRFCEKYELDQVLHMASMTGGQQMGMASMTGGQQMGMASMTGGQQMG


Assays:
hiR2-FL-V434E-T7 = molecular target: T1, hiR2-FL-V434E-T7; test: FACS, MEF-DKO cells, 3 µg/ml
Excerpt: (§1) In brief, immortalized MEF-DKO-hiR2-FL-A431S-T7, MEF-DKO-hiR2-FL-V434E-T7, MEF-DKO-hiR2-FL-T436V-T7, MEF-DKO-hiR2-FL-Q437D-T7, MEF-DKO-hiR2-FL-L438S-T7, MEF-DKO-hiR2-FL-S448N-T7, MEF-DKO-hiR2-FL-I452V-T7, MEF-DKO-hiR2-FL-I464E-T7, MEF-DKO-hiR2-FL-D465A-T7, MEF-DKO-hiR2-FL-I477M-T7, MEF-DKO-hiR2-FL-K479Q-T7, MEF-DKO-hiR2-FL-G481P-T7, MEF-DKO-hiR2-FL-I483V-T7, MEF-DKO-hiR2-FL-E484H-T7, MEF-DKO-hiR2-FL-Q485S-T7, MEF-DKO-hiR2-FL-L486F-T7, MEF-DKO-hiR2-FL-V487I-T7, MEF-DKO-hiR2-FL-R489S-T7, MEF-DKO-hiR2-FL-E490A-T7, MEF-DKO-hiR2-FL-D492E-T7, MEF-DKO-hiR2-FL-L493R-T7, MEF-DKO-hiR2-FL-R495K-T7 and MEF-DKO-hiR2-FL-D496H-T7 cells were harvested with 10 mM EDTA in PBS, washed and resuspended in FACS buffer (PBS, 3% FBS, 0.05% sodium azide), and seeded in Nunc U-bottom 96-well plates (Thermo Fisher Scientific, USA) at approximately 1×10⁵ cells per well. To pellet cells and remove supernatants, the plates were centrifuged at 1,500 rpm and 4° C. for 3 minutes. For primary staining, cells were resuspended in 100 μl per well of either FACS buffer alone (controls) or the purified antibodies 3, 5, 16, 22, 34, 42, 43, 44, 48, and 50 of the invention at 3 μg/ml in FACS buffer and incubated on ice for 1 hour. Afterwards, plates were centrifuged at 1,500 rpm and 4° C. for 3 minutes and washed twice with 200 μl per well of FACS buffer. For secondary staining, cells were spun down and resuspended in 100 μl per well of PE-conjugated goat anti-mouse IgG F(ab′)2 detection fragment (Dianova, Germany) diluted 1:100 in FACS buffer. Protected from light, the cell suspensions were incubated on ice for 1 hour. Plates were then centrifuged at 1,500 rpm and 4° C. for 3 minutes and washed three times with 200 μl per well of FACS buffer. Finally, cells were resuspended in 150 μl per well of FACS buffer and analyzed using a BD Accuri™ C6 Plus flow cytometer (Becton Dickinson, Germany).

hiR2-FL-T436V-T7 = molecular target: T2, hiR2-FL-T436V-T7; test: FACS, MEF-DKO cells, 3 µg/ml
Excerpt: as §1

Row | Binder | loss of binding vs wild type (hiR2-FL-V434E-T7) [%] | loss of binding vs wild type (hiR2-FL-T436V-T7) [%]
1 | antibody 48 (antibody, V domains shown, mouse IgG, kappa light chain; also called clone #48; purified antibody 48) VH: QVQLQQSGTELVRPGTSVKVSCKASGYAFTNYLIEWVKQRPGQGLEWIGVINPGSGFTKYNEKFKGKATLTADKSSSTVYMHLSSLTSEDSAVYFCARGLYRAMDYWGQGTSVTVSS VL: DIQMTQSPASQSASLGESVTITCLASQTIATWLAWYQQKPGKSPQLLIYGATTLADGVPSRFSGGGSGTKFSFKISSLQAEDFVSYYCQQLYSTPYTFGGGTKLEIK | ≥ 30 | ≥ 30
2 | antibody 50 (antibody, V domains shown, mouse IgG, kappa light chain; also called clone #50; purified antibody 50) VH: QVQLQQSGAELVRPGASVKVSCKASGYAFSNYLIEWVKQRPGQGLEWIGVINPGSGFTKYNEKFKGKATLTADKSSSTAYMQLSSLTSEDSAVYFCARGLYRAMDYWGQGTSVTVSS VL: DIQMTQSPASQSASLGESVTITCLASQTIGTWLAWYQQKPGKSPQLLIYAAASLADGVPSRFSGGGSGTKFSFKISSLQAEDFVNYYCQQIYSTPYTFGGGTKLEIK | ≥ 30 | ≥ 30

Source: patent publication US20240287172A1 (SCIRHOM, published 2024)
